Square brackets hold non-standard residues; d marks the D form. Oic = O=C(O)[C@@H]1C[C@@H]2CCCC[C@@H]2N1; 1Nal = N[C@@H](Cc1cccc2ccccc12)C(=O)O; 2Nal = N[C@@H](Cc1ccc2ccccc2c1)C(=O)O; d1Nal = N[C@H](Cc1cccc2ccccc12)C(=O)O; Tic = O=C(O)[C@@H]1Cc2ccccc2CN1; dTic = O=C(O)[C@H]1Cc2ccccc2CN1; dOrn = NCCC[C@@H](N)C(=O)O; Orn = NCCC[C@H](N)C(=O)O; Dab = NCC[C@H](N)C(=O)O; Abu = CC[C@H](N)C(=O)O

The target in the test is chemokine receptor CXCR7 (RDC1) (UniProt P25106). Put plainly: cell-based or functional assay.
chemokine receptor CXCR7 (RDC1), sequence (P25106 whole entry): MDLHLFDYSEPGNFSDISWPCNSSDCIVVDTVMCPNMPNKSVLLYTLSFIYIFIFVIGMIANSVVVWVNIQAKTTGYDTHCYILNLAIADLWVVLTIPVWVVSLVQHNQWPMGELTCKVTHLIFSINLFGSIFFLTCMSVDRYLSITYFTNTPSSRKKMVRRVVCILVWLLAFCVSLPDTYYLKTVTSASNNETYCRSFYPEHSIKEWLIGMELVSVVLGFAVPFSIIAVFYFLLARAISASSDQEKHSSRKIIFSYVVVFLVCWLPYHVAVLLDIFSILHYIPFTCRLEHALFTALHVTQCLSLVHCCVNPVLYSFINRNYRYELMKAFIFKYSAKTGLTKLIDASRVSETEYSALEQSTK
Consider cyclo(W[dH]WR[dP][Tic]), for which the β-Arrestin EC50 was found to be 204 nM. The value for cyclo(W[dF]YR[dP][Tic]) was 326 nM; that for “cyclo(-Trp-^DArg-Trp-Ile-^DPro-Azt-) (peptide)” was 208 nM. The value for cyclo(W[dF]RR[dP][Tic]) was 178 nM; that for cyclo(W[dF]WY[dP][Tic]) was 94.5 nM; that for cyclo(I[dW]HR[dP][Tic]) was 317 nM. In the case of cyclo(F[dF]WR[dP][Tic]), the β-Arrestin EC50 was found to be 22.5 nM. Substance cyclo(I[dR]IR[dP][Tic]) gave a β-Arrestin EC50 of 34.3 nM. Turning to cyclo(W[dR]HW[dP][Tic]), the β-Arrestin EC50 is 217 nM. In the case of cyclo(W[dF]W[Orn][dP][Tic]) it was 12.1 nM.

Substance cyclo(I[dH]WR[dP][Tic]) returned a β-Arrestin EC50 of 70.8 nM. cyclo(R[dH]WR[dP][Tic]): the β-Arrestin EC50 turned out to be 144 nM. Substance cyclo([1Nal][dR]WR[dP][Tic]) returned a β-Arrestin EC50 of 280 nM. cyclo(W[dOrn]WR[dP][Tic]) yielded a β-Arrestin EC50 of 111 nM. The value for cyclo(R[dF]WR[dP][Tic]) was 12.8 nM. On to cyclo(W[dF]W[Dab][dP][Tic]), for which the β-Arrestin EC50 turned out to be 12.6 nM.

For “cyclo(-1Nal-^DArg-Trp-Arg-^DPro-Azt-) (peptide)”, the β-Arrestin EC50 came out at 146 nM. In turn, cyclo(W[dF]WR[dP][Oic]) had a β-Arrestin EC50 of 0.8 nM. The value for cyclo(W[dF]WR[dTic]P) was 83.6 nM. For cyclo(R[dW]HR[dP][Tic]), the β-Arrestin EC50 was found to be 234 nM. In the case of “cyclo(-Trp-^DHis-Trp-Arg-^DPro-Azt-) (peptide)” it was 342 nM; in that of cyclo(W[dI]WR[dP][Tic]), 63.4 nM; in that of cyclo(W[dR]WR[dP][Tic]), 128 nM. The value for “cyclo(-Trp-^DPhe-Trp-Arg-^DPro-(4S)-Hyp(Bn)-) (peptide)” was 1.7 nM; that for cyclo([1Nal][dH]IR[dP][Tic]) was 347 nM. As for cyclo(W[dF]WR[dP][Tic]), the β-Arrestin EC50 came to 4.8 nM. The value for cyclo([1Nal][dF]WR[dP][Tic]) was 61.6 nM; that for cyclo(H[dF]WR[dP][Tic]) was 32.1 nM; that for cyclo(W[dF]FR[dP][Tic]) was 75.7 nM. The substance “cyclo(-Trp-^DPhe-Trp-Arg-^DPro-Tiq-) (peptide)” showed a β-Arrestin EC50 of 0.4 nM. cyclo(H[d1Nal]HW[dP][Tic]): the β-Arrestin EC50 came to 269 nM.

As to cyclo(W[dF]WK[dP][Tic]), the β-Arrestin EC50 was 16.5 nM.

In turn, “cyclo(-1Nal-^DHis-Tyr-Arg-^DPro-Azt-) (peptide)” registered a β-Arrestin EC50 of 44.4 nM.

With “cyclo(-Trp-^DThr-Tyr-Arg-^DPro-Azt-) (peptide)”, the β-Arrestin EC50 turned out to be 148 nM. The value for cyclo(W[dF]WH[dP][Tic]) was 18.3 nM; that for cyclo([Abu][dR]RW[dP][Tic]) was 97.5 nM. In the case of “cyclo(-Trp-^DPhe-Trp-Arg-^DPip-Pro-) (peptide)” it was 78.7 nM; in that of cyclo(W[dW]WR[dP][Tic]), 64.9 nM; in that of cyclo([2Nal][dF]WR[dP][Tic]), 8.9 nM. “cyclo(-Trp-^DArg-Trp-Arg-^DPro-Azt-) (peptide)” returned a β-Arrestin EC50 of 170 nM. The value for cyclo(Y[dF]WR[dP][Tic]) was 11.5 nM.

cyclo(W[dF]IR[dP][Tic]): the β-Arrestin EC50 was found to be 148 nM. The value for “cyclo(-His(Me)-^DPhe-Trp-Arg-^DPro-Tic-) (peptide)” was 32.5 nM; that for cyclo(A[dF]WR[dP][Tic]) was 163 nM. For the substance “cyclo(-1Nal-^DHis-Ile-Arg-^DPro-Azt-) (peptide)”, the β-Arrestin EC50 came to 85.7 nM.

As to cyclo(W[dR]HR[dP][Tic]), the β-Arrestin EC50 worked out at 348 nM. In the case of “cyclo(-Trp-^DArg-Ile-Arg-^DPro-Azt-) (peptide)” it was 47.7 nM; in that of “cyclo(-1Nal-^DArg-Ile-Arg-^DPro-Azt-) (peptide)”, 41.2 nM; in that of cyclo(W[dF][2Nal]R[dP][Tic]), 16.9 nM.

The substance “cyclo(-Trp-^DHis-Ile-Arg-^DPro-Azt-) (peptide)” came in with a β-Arrestin EC50 of 344 nM. cyclo(H[dW]HR[dP][Tic]): the β-Arrestin EC50 came to 226 nM.

The record behind these values is patent US20130023483A1.
